Molecular target: streptavidin (UniProt P22629 25-183)
Assay: EMSA

streptavidin, sequence (P22629 25-183): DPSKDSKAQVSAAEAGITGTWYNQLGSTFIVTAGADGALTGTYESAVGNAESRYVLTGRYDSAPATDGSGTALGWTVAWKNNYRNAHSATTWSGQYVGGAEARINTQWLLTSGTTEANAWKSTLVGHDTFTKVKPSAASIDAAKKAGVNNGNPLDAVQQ

B1: S1-77 (structured_RNA)
RNA: GGGCCAUCGAUGCGGCCGCCGACCAGAAUCAUGCAAGUGCGUAAGAUAGUCGCGGGUCGGCGGCCGCAUCGAUGGCC
Q: Does B1 bind?
A: Result: binds

Source: paper PMC2685113
